Test results reported in patent US20120114652A1.
Values belong to the binder of their own block, whether it stands above or below them.

What was measured:
[1] = target: Antibody 16, IgG1, not germlined; assay: competition binding assay: Antibody 16 IgG adsorbed to the plate, biotinylated active human PAI-1 at about its KD, dilution series of the unlabelled competitor (the varied molecule), detection with streptavidin-Europium
[2] = target: human PAI-1, active, wild-type, non-glycosylated (E. coli-derived) (human) (UniProt P05121); assay: cell-based or functional assay
rat PAI-1 (rat) = target: T1, rat PAI-1 (rat) (UniProt P20961); assay: cell-based or functional assay
T1 sequence: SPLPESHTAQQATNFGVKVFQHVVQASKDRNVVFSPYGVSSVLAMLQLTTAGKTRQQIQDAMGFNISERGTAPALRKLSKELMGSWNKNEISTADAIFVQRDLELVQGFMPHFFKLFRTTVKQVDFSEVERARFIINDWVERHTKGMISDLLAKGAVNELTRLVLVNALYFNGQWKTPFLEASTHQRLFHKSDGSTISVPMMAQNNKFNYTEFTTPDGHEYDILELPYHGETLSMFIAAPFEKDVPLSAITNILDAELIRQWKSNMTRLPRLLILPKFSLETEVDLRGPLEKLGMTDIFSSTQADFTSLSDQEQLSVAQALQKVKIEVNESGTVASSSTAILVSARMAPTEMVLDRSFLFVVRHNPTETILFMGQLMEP

mouse PAI-1 (mouse) = target: T2, mouse PAI-1 (mouse) (UniProt P22777); assay: cell-based or functional assay
T2 sequence: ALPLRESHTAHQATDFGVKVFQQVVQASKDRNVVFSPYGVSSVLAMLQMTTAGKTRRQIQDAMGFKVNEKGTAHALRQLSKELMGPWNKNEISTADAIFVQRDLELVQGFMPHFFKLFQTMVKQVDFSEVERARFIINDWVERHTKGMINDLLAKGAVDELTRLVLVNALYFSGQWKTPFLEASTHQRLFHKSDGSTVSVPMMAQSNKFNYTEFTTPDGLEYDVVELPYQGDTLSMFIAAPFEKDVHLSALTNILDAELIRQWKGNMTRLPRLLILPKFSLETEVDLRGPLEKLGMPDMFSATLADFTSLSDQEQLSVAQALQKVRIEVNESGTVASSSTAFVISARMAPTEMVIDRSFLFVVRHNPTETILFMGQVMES

[3] = target: cynomolgus PAI-1 (cynomolgus); assay: cell-based or functional assay

- IC50 (read off the curve) [1]: 2 nM
B1: rat PAI-1 (protein)
chain: T1 sequence

- IC50 (read off the curve) [1]: 5 nM
B2: mouse PAI-1 (protein)
chain: T2 sequence

- IC50, HT1080 plasminogen activation assay [2]: 22 nM
- IC50, PAI-1:tPA functional assay [2]: 3.2 nM
- pIC50, HT1080 plasminogen activation assay [2]: 7.65
- IC50, HT1080 plasminogen activation assay (rat PAI-1 (rat)): 49 nM
- IC50, PAI-1:tPA functional assay (rat PAI-1 (rat)): 2.98 nM
- pIC50, HT1080 plasminogen activation assay (rat PAI-1 (rat)): 7.31
- IC50, HT1080 plasminogen activation assay (mouse PAI-1 (mouse)): 25 nM
- pIC50, HT1080 plasminogen activation assay (mouse PAI-1 (mouse)): 7.6
- IC50, PAI-1:tPA functional assay [3]: 1.02 nM
B3: PICK167_A01 scFv (scFv)
scFv: QVQLQQSGAEVKKPGSSVKVSCKASGGTFSSYAISWVRQAPGQRLEWMGGIIPTFGTANYAQKFQGRVTITADESTSTAYMELSGLRSEDTAVYYCARERRQWLEGHFDYWGRGTPVTVSSGGGGSGGGGSGGGGSDIQMTQSPSFLSASIGDRVTITCRASEGIYHNLAWYQQKPGKAPKLLIYKASSLASGAPSRFSGSRSGTDFTLTISSLQPDDFATYYCQQYSNYPLTFGGGTKLEIKR
